Test results from patent US20090215095A1 (INTRINSIC LIFESCIENCES, published 2009).
Ends that are not written are not given here.

How the values were obtained:
[1] = target: affinity purified rabbit anti-mature, folded, bioactive hepcidin antibody (KST4); assay: competition ELISA with synthetic hepcidin as competitor
[2] = target: Protein A affinity purified antibodies (anti-hepcidin rabbit sera, source serum not named); assay: as above
[3] = target: polyclonal anti-hepcidin rabbit sera (unpurified serum, source rabbit not named); assay: as above
[4] = target: Protein A affinity purified KST4; assay: competitive inhibition ELISA, Protein A purified KST4 at 1:5000 (FIG. 7B)
Description: We collected serum from each of three immunized rabbits (KST3, KST4, KST5). KST3 and 4 are sera from rabbits immunized with hepcidin-KLH conjugates produced using EDC chemistry, while KST5 is sera from conjugates produced using DSS chemistry (FIG. 7A). […] Additional validation of the anti-mature, folded, bioactive hepcidin antibodies described above was performed and their utility in competitive ELISA examined in the presence of varying dilutions of bass serum (FIG. 8 A-C). Note increasing inhibition of signal with increasing amounts of synthetic hepcidin added to tracer. Note the effects of serum on competitive ELISA standard curve (FIG. 8 C) generated with data from (FIG. 8 B) between 10-100 ngs of mature, folded, bioactive hepcidin. […] FIG. 9 is an example of a routine standard curve where hepcidin competitor concentrations are expressed as ng/ml, rather than total ngs added to the competition.

percent of signal competed away [1]: > 90%
percent of signal competed away [2]: ~80%
percent of signal competed away [3]: 65%
IC50 [4]: ~2.5 ng/mL
B1: synthetic, mature, refolded, bioactive bass hepcidin (peptide)
peptide: GCRFCCNCCPNMSGCGVCCRF-OH
modifications: disulfide (positions not given here)
notes: also called synthetic hepcidin
